Source: patent US20170129961A1 (Amgen, published 2017)

T1: full-length mouse CD70 with C-terminal V5 tag (mouse, UniProt O55237 1-195)
T1 construct: On transfected CHO cells; also called murine CD70
T1 sequence: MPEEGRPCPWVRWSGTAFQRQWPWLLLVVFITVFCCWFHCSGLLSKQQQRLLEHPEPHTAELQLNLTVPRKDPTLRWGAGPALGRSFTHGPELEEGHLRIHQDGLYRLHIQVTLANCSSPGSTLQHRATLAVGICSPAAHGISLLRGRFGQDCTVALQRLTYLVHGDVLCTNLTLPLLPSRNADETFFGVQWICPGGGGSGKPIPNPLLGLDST

T2: human CD70 (human, UniProt P32970 1-193)
T2 construct: also called hu CD70; CD27L
T2 sequence: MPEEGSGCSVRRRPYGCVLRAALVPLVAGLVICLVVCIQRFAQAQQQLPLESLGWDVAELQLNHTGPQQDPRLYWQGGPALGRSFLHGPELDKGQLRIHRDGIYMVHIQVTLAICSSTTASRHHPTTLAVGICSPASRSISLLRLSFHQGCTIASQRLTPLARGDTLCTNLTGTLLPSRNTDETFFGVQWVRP


How the values were obtained:
[1] = biological target: T1, full-length mouse CD70 with C-terminal …; experiment: FACS on CHO cells, periplasmic scFv
Description: (§1) All antibodies were diluted in PBS/1.5% FCS. As negative control, cells were incubated with PBS/2% FCS instead of the periplasmic extract. The samples were measured by flow cytometry.

human CD70 = biological target: T2, human CD70; experiment: FACS on CHO cells, periplasmic scFv
Description: as §1

| Binder | binding result [1] | binding result (human CD70) |
| --- | --- | --- |
| CD70-29 (scFv, As m32) scFv: EVQLLESGGGLVQPGGSLRLSCAASGFNFASYAMSWVRQAPGKGLEWVSVISGSGGRTHYADSGKGRFTISRDNSKNTLYLQMNSLRAEDTAVYYCAKHDYSNYPYFDYWGQGTLVTVSSGGGGSGGGGSGGGGSEIVLTQSPGTLSLSPGERATLSCRASQSVRSSYLAWYQQKPGQAPRLLIFGASSRATGIPDRFSGSESGTDFTLTINRLEPEDFAVYYCEQYGNSPPTFGGGTKVEIK | no binding | binds |
| CD70-23 (scFv, As m32) scFv: EVQLLESGGGLVQPGGSLRLSCAASGFTFSVYAMSWVRQAPGKGLEWVSTISDSGGSTFYADSVKGRFTISRDNSKNTLYLQMNRLRAEDTAVYYCARHDYSNYAYFDYWGQGTLVTVSSGGGGSGGGGSGGGGSEIVLTQSPGTLSLSPGERATLSCRASQSVRSSYLAWYQQKPGQAPRLLIYGASSRATGIPDRFSGSGSGTDFTLTISRLEPEDFAVYYCQQYGDLPFTFGPGTKVEIK | no binding | binds |
| CD70-43 (scFv, As m32) scFv: EVQLLESGGGVVQPGRSLRLSCAASGFTFSSYAMSWVRQAPGKGLEWVSAISGSGGRTFYADSVEGRFTISRDNSKNTLYLQMNSLRAEDTAVYYCAKHDYSNYPYFDYWGQGTLVTVSSGGGGSGGGGSGGGGSEIVLTQSPGTLSLSPGERATLSCRASQSVRSNYLAWYQQKPGQAPRLLIYGASSRATGIPDRFSGSGSGTDFTLTINRLEPEDFAVYYCQQYGSSPPTFGGGTKVDIK | no binding | binds |
| CD70-27 (scFv, As m32) scFv: EVQLLESGGGLVQPGGSLRLSCAASGFTFSTYAMSWVRQAPGKGLEWVSAISGSGGGTFYADSVKGRFTISRDNSKNTLYLQMNSLRAEDTAVYYCAKHDYSNYPYFDYWGQGTLVTVSSGGGGSGGGGSGGGGSEIVLTQSPGTLSLSPGERATLSCRASQSIRSNYLAWYQQKPGQAPRLLIYGASSRATGIPDRFSGSGSGTDFTLTISRLEPEDFAVYYCQQYGSSPFTFGPGTKVEIK | no binding | binds |
| CD70-24 (scFv, As m32) scFv: EVQLLESGGGLAQPGGSLRLSCAASGFTFSSYAMSWVRQAPGKGLEWVSAISGSGGSTFYADSVKGRFTISRDNSKNTLYLQMNSLRAEDTAVYFCAKHDYSNYPYFDYWGQGTLVTVSSGGGGSGGGGSGGGGSEIVLTQSPGTLSLSPGERATLSCRASQSVRSSYLAWYQQKPGQAPRLLIYGASSRATGIPDRFSGSGSGTDFTLTISRLEPEDFAVYYCQQYGDLPFTFGPGTKVEIK | no binding | binds |
| CD70-32 (scFv, As m32) scFv: EVQLLESGGGMVQPGGSLRLSCAASGFTFSSYAMSWVRQAPGKGLEWVSAISGSGGRTFYADSVEGRFTISRDNSKNTLYLQMNSLRAEDTAVYYCTKHDYSNYPYFDYWGQGTLVTVSSGGGGSGGGGSGGGGSEIVLTQSPGTLSLSPGERATLSCRASQGVRSDYLAWYQQKPGQAPRLLIYGASSRATGIPDRFSGSGSGTDFTLTISRLEPEDFAVYHCQQYGSTPPTFGGGTKVEIK | no binding | binds |
| CD70-25 (scFv, As m32) scFv: EVQLLESGGGMVQPGGSLRLSCAASGFTFSSYAMSWVRQAPGKGLEWVSAISGSGGRTFYADSVEGRFTISRDNSKNTLYLQMNSLRAEDTAVYYCAKHDYSNYPYFDYWGQGTLVTVSSGGGGSGGGGSGGGGSEIVLTQSPGTLSLSPGERATLSCRASQSVRSNYLAWYQQKPGQAPRLLIYGASSRATGIPDRFSGSGSGTDFTLTISRLEPEDFAVYYCQQYGDLPFTFGPGTKVEIK | no binding | binds |
| CD70-36 (scFv, As m32) scFv: EVQLLESGGGLVQPGGSLRLSCAASGFTFSSYAMSWVRQAPGQGLEWVSAISGSGGRTYYADSVKGRFTISRDNSKNTLYLQMNSLRAEDTAVYYCAKHDYSNYPYFDYWGQGTLVTVSSGGGGSGGGGSGGGGSEIVLTQSPGTLSLSPGERATLSCRASQSVRGSYLAWYQQKPGQAPRLLIYSASSRATGIPDRFSGSGSGTDFTLTISRLEPEDFAVYYCQQYGDSPFTFGPGTKVEIK | no binding | binds |
| CD70-74 (scFv, As m32) scFv: EVQLLESGGGLVQPGGSLRLSCAASGFTFSSYAMSWVRQAPGKGLEWVSAISGSGGSTFYADSVQGRFTISRDNSKNTLYLQVNSLRAEDTAVYYCARHDYSNYPYFDYWGQGTLVTVSSGGGGSGGGGSGGGGSEIVLTQSPGTLSLSPGERATLSCRASQSVRGNYLAWYQQKPGQAPRLLIYGASSRATGIPDRFSGSGSGTDFTLTISRLEPEDFAVYYCQQYGYSPFTFGPGTKVDIK | no binding | binds |
| CD70-40 (scFv, As m32) scFv: EVQLLESGGGMVQPGGSLRLSCAASGFTFSSYAMSWVRQAPGKGLEWVSAISGSGGRTFYADSVEGRFTISRDNSKNTLYLQMNSLRAEDTAVYYCAKHDYSNYPYFDYWGQGTLVTVSSGGGGSGGGGSGGGGSEIVLTQSPGTLSLSPGERATLSCRASQSIRSSYLAWYQQKPGQAPRLLIYGASSRATGIPDRFSGSGSGTDFTLTISRLEPEDFAVYYCQQYGDLPFTFGPGTKVDIK | no binding | binds |
| CD70-39 (scFv, As m32) scFv: EVQLLESGGGVVQPGRSLRLSCAASGFTFSSYAMSWVRQAPGKGLEWVSAISGSGGGTFYADSVEGRFTISRDNSKNTLYLQMNSLRAEDTAVYYCARHDYSNYPYFDYWGLGTLVTVSSGGGGSGGGGSGGGGSEIVLTQSPGTLSLSPGERATLSCRASQSVRSSYLAWYQQKPGQAPRLLIYGASSRATGIPDRFSGSGSGTDFTLTISRLEPEDFAVYSCQQYGDLPFTFGPGTKVEIK | no binding | binds |
| CD70-41 (scFv, As m32) scFv: EVQLLESGGGMVQPGGSLRLSCAASGFTFSSYAMSWVRQAPGKGLEWVSAISGSGGRTFYADSVEGRFTISRDNSKNTLYLQMNSLRAEDTAVYYCTKHDYSNYPYFDYWGQGTLVTVSSGGGGSGGGGSGGGGSEIVLTQSPGTLSLSPGERATLSCRASQSVRSSYLAWYQQKPGQAPRLLIYGASSRATGIPDRFSGSGSGTDFTLTISRLEPEDFAVYYCQQYGDLPFTFGPGTKVDIK | no binding | binds |
| CD70-66 (scFv, As m32) scFv: EVQLLESGGGLVQPGGSLRLSCAASGFTFSSYAMSWVRQAPGQCLEWVSAISGSGGRTYYADSVKGRFTISRDNSKNTLYLQMNSLRAEDTAVYYCAKHDYSNYPYFDYWGQGTLVTVSSGGGGSGGGGSGGGGSEIVLTQSPGTLSLSPGERATLSCRASQSVRGSYLAWYQQKPGQAPRLLIYSASSRATGIPDRFSGSGSGTDFTLTISRLEPEDFAVYYCQQYGDSPFTFGCGTKVEIK | no binding | binds |
| CD70-28 (scFv, As m32) scFv: EVQLLESGGGLVQPGGSLRLSCAASGFTFSTYAMSWVRQAPGKGLEWVSLISGSGGRTYYADSVKGRFTISRDNSKNTLYLQMNSLRAEDTAVYYCAKHDYSNYPYFDYWGQGTLVTVSSGGGGSGGGGSGGGGSEIVLTQSPGTLSLSPGERATLSCRASQSVRSNYLAWYQQKPGQAPRLLIYGASNRATGIPDRFSGSGSGTDFTLTISRLEPEDFAVYSCQQYGISPPTFGGGTKVEIK | no binding | binds |
| CD70-38 (scFv, As m32) scFv: EVQLLESGGGVVQPGRSLRLSCAASGFTFSSYAMSWVRQAPGKGLEWVSAISGSGGRTFYADSVEGRFTISRDNSKNTLYLQMNSLRAEDTAVYYCAKHDYSNYPYFDYWGQGTLVTVSSGGGGSGGGGSGGGGSEIVLTQSPGTLSLSPGERATLSCRASQSIRSNYLAWYQQKPGQAPRLLIYGASSRATGIPDRFSGSGSGTDFTLTISRLEPEDFAVYYCQQYGSSPPSFGQGTKVEIK | no binding | binds |
| CD70-54 (scFv, As m32) scFv: EVQLLESGGGLVQPGGSLRLSCAASGFTFSIYAMSWVRQAPGKGLEWVSAIGDSGGSTFYADSVKGRFTISRDNSKNTLYLQMNSLRAEDTAVYYCAKHDYSNYPYFDYWGQGTLVTVSSGGGGSGGGGSGGGGSEIVLTQSPGTLSLSPGERATLSCRASQSVRSSYVAWYQQKPGQAPRLLIYGASSRATGIPDRFSGSGSGTDFTLTISRLEPEDFAVYYCQQYGDLPFTFGPGTRLEIK | no binding | binds |
| CD70-42 (scFv, As m32) scFv: EVQLLESGGGLVQPGGSLRLSCAASGFTFSTYAMSWVRQAPGKGLEWVSLISGSGGRTYYADSVKGRFTISRDNSKNTLYLQMNSLRAEDTAVYYCAKHDYSNYPYFDYWGQGTLVTVSSGGGGSGGGGSGGGGSEIVLTQSPGTLSLSPGERATLSCRASQGVRSSYLAWYQQKPGQAPRLLIYGASSRATGIPDRFSGSGSGTDFTLTINRLEPEDFAVYYCQQYGSSPPTFGGGTKVDIK | no binding | binds |
| CD70-20 (scFv, As m32) scFv: EVQLLESGGGLVQPGGSLRLSCAASGFTFSTYAMSWVRQAPGKGLEWVSLISGSGGRTYYADSVKGRFTISRDNSKNTLYLQMNSLRAEDTAVYYCAKHDYSNYPYFDYWGQGTLVTVSSGGGGSGGGGSGGGGSEIVLTQSPGTLSLSPGERATLSCRASQGVRSDYLAWYQQKPGQALRLLIYGASSRATGIPDRFSGSGSGTDFTLTISRLEPEDFAVYHCQQYGSTPPTFGGGTKLEIK | no binding | binds |
